pKd: −log10 of the molar value.

The experiment deals with mouse CD47-Fc (mouse) (UniProt Q61735). As to the kind of experiment: bio-light interferometry (ForteBio), antibody on AHQ tip, mouse CD47-Fc 100 nM in solution, bivalent.
Chain of mouse CD47-Fc (mouse) (Q61735 19-140 limits assumed): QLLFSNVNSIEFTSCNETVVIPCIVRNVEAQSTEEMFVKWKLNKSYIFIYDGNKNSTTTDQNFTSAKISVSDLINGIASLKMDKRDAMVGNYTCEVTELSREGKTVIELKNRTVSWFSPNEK

Chain of Hu5F9, control anti-CD47 antibody transiently expressed in 293 HEK cells (VH): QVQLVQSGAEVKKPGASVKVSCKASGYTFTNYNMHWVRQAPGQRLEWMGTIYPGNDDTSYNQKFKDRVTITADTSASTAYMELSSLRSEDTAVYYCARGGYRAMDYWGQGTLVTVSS
Chain of Hu5F9, control anti-CD47 antibody transiently expressed in 293 HEK cells (VL): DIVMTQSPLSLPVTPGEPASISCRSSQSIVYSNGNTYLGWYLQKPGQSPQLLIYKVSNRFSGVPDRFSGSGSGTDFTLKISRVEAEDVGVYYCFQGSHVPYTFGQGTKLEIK

In turn, “Hu5F9, control anti-CD47 antibody transiently expressed in 293 HEK cells” gave a pKd of 7.90.
